The term Kd denotes the free concentration of one partner at which half of the binding sites on the other are occupied at equilibrium, for simple one-to-one binding. A low value points to higher affinity.

Our source for the percent of the disulfide trapping that depends on SMO phosphorylation (against pSMO S570C) and Kd values is publication PMC13186710.

Assay [1] concerns the target Nonphosphorylated, SAG21k-bound FLAG-tagged mouse Smoothened (residues 64-674) S570C (mouse) (UniProt P56726). In words: cross-linking; disulfide trapping with 5 mM diamide, 1 h, room temperature; FLAG-SMO (4 ul of 12.5 uM) and PKA-C (4 ul of 6.25 uM) in 10 ul, 20 mM HEPES, 150 mM NaCl, 0.025% GDN, SAG21k, 1 mM ATP, 10 mM MgCl2, pH 8.0; non-reducing SDS-PAGE.
The target in assay [2] is GRK2-phosphorylated FLAG-tagged mouse Smoothened (residues 64-674), wild type (mouse) (UniProt P56726). In words: SPR; biotinylated SMO nanodiscs captured (Biotin CAPture kit, 250-350 RU); myr-PKA-Cα-K7C 16 nM-1 uM injected; 20 mM MOPS pH 7.0, 150 mM NaCl, 100 uM EDTA, 1 mM ATP, 10 mM MgCl2, 0.001% P20, 25 °C; Biacore 3000; steady-state analysis.
In assay [3] the target is GRK2-phosphorylated FLAG-tagged mouse Smoothened (residues 64-674) I573A F577A R580A (mouse) (UniProt P56726). The description is as above.

Take “Mouse PKA-C G136C in the minimal-cysteine ((−)Cys, C199A) background (enzyme)”: the percent of the disulfide trapping that depends on SMO phosphorylation (against pSMO S570C) in assay [1] turned out to be 54%.
With Myristoylated PKA-Cα K7C (enzyme), the dissociation constant (Kd) was 0.082 µM in assay [2] and 0.222 µM in assay [3].
